Experimental data reported in patent US20240400657A1 (MorphoSys, published 2024).
Numbering of substitutions follows the chain as printed.

What was measured:
Myoglobin = experiment: Protein Panel Profiling (3P), MSD ECL, coated antigen, IgG 100 nM
Experimental: (§1) 32 different proteins and controls were coated on two 384-well MSD standard plates at a concentration of 1.0 μg/mL at 4° C. over night. The coating solution was discarded and plates were blocked with 50 μL 3% (w/v) BSA in PBS for one hour at RT on a microtiter plate shaker (˜500 rpm) followed by three washing steps with 50 μL washing buffer (PBS with 0.05% (v/v) Tween 20). IgG samples were diluted to 100 nM and 10 nM in assay buffer (PBS with 0.5% (w/v) BSA, 0.05% (v/v) Tween 20). As controls, isotype control antibody MOR03207 (IgG1f_AEASS) and assay buffer were used. Samples and controls were added at 30 μL/well and incubated for three hours at RT on a microtiter plate shaker. The plates were washed three times and 30 μL detection antibody (ECL-labeled anti-human Fab) were added per well and incubated for one hour on a microtiter plate shaker (˜500 rpm). After washing the MSD plate and adding 35 μL/well MSD Read Buffer T with surfactant, electro-chemiluminescence signals were detected using a SECTOR® Imager S600 instrument (Meso Scale Diagnostics).
(§2) For evaluation, binding signals of the antibody sample to a certain protein were divided by the respective binding signals of the reference antibody MOR03207 resulting in a binding ratio (BR). The cumulative binding ratio (CBR) of all proteins except the controls (25 in total) was then calculated: CBR up to 150 indicates an IgG without detectable unspecific binding. Values above 150 indicates an IgG with increased unspecific binding compared to the reference antibody MOR03207.

RNase A [1] = experiment: as above
Experimental: as §1, §2

GFP [2] = experiment: as above
Experimental: as §1, §2

anti-human Fab (Dianova) = target: T1, anti-human Fab (Dianova); experiment: as above
T1 construct: control of the 3P panel; it captures human IgG as such, so a ratio of 1 means a signal equal to that of MOR03207
Experimental: as §1, §2

anti-human Fc [3] = target: T2, anti-human Fc; experiment: as above
T2 construct: control of the 3P panel; it captures human IgG as such, so a ratio of 1 means a signal equal to that of MOR03207
Experimental: as §1, §2

Hemoglobin (h) [4] = target: T3, Hemoglobin (h) (human); experiment: as above
T3 construct: '(h)' on the sheet read as human
T3 sequence (P69905 2-142, chain 1 of 2): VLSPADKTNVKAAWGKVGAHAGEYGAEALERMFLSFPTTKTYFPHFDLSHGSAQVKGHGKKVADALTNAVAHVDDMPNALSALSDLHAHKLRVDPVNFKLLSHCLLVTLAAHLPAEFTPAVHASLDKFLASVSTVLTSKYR
T3 sequence (P68871 2-147, chain 2 of 2, further chain): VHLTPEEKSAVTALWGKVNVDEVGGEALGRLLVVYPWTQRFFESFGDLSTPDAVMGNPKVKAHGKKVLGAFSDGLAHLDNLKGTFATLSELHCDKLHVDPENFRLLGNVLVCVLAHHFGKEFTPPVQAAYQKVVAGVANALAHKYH
Experimental: as §1, §2

Fibrinogen (b) = Fibrinogen (b) (bovine); experiment: as above
Chain of Fibrinogen (b) (bovine) (P02672 20-615, chain 1 of 3): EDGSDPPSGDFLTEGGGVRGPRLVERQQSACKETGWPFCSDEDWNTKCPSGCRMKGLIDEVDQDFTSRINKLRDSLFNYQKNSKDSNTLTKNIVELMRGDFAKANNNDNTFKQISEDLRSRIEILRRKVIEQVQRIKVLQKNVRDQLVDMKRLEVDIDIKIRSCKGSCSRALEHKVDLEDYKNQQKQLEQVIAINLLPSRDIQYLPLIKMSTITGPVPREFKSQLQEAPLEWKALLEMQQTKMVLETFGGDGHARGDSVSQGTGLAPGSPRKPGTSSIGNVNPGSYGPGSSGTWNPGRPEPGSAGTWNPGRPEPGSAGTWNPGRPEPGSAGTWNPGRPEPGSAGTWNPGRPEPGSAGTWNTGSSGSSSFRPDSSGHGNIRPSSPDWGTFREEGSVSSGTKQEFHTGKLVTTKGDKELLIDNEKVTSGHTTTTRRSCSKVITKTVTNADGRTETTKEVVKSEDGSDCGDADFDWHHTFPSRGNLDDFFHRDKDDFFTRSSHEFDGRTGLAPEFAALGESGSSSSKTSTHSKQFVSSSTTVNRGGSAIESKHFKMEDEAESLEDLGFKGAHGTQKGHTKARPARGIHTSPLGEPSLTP
Chain of Fibrinogen (b) (bovine) (P02676 whole entry, chain 2 of 3, further chain): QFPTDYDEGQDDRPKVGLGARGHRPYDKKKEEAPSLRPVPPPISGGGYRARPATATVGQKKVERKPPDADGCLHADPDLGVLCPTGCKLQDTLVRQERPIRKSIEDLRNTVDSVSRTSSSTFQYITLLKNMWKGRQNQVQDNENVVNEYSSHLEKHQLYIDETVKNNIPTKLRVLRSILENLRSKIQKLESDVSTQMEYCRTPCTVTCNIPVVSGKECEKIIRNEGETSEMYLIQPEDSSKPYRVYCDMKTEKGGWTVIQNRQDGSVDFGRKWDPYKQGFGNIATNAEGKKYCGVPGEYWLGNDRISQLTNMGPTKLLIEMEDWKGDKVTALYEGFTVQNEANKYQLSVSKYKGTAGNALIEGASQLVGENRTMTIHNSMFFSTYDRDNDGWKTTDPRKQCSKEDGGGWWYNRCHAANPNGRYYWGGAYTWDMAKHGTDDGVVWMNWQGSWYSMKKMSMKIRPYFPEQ
Chain of Fibrinogen (b) (bovine) (P12799 25-444, chain 3 of 3, further chain): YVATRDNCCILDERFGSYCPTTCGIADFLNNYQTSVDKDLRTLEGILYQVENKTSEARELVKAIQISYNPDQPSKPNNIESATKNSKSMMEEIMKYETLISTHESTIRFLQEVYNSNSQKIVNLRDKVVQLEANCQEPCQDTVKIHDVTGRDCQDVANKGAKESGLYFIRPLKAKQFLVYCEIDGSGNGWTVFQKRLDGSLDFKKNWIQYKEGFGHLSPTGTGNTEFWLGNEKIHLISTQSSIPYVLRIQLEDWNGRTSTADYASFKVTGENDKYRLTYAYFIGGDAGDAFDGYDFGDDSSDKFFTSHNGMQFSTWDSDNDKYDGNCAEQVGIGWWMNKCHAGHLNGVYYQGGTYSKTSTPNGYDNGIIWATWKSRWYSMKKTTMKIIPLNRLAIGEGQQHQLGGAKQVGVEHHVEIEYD
Experimental: as §1, §2

Cytochrome C [5] = experiment: as above
Experimental: as §1, §2

[6] = target: T4, Cell surface rec. 3_Fc (h); experiment: as above
T4 construct: identity not disclosed
Experimental: as §1, §2

Amyloglycosidase = experiment: as above
Experimental: as §1, §2

Lysozyme [7] = experiment: as above
Chain of Lysozyme (P00698 19-147): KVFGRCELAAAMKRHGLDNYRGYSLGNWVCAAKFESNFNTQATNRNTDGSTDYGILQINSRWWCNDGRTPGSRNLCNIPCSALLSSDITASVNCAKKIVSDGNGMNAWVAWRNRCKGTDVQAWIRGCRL
Experimental: as §1, §2

Pepsinogen [8] = experiment: as above
Experimental: as §1, §2

RNase A [9] = experiment: Protein Panel Profiling (3P), MSD ECL, coated antigen, IgG 10 nM
Experimental: as §1, §2

Trypsin inhibitor = experiment: as above
Experimental: as §1, §2

GFP [10] = experiment: as above
Experimental: as §1, §2

Serum albumin (h) = target: T5, Serum albumin (h) (human); experiment: as above
T5 construct: '(h)' on the sheet read as human
T5 sequence (P02768 25-609): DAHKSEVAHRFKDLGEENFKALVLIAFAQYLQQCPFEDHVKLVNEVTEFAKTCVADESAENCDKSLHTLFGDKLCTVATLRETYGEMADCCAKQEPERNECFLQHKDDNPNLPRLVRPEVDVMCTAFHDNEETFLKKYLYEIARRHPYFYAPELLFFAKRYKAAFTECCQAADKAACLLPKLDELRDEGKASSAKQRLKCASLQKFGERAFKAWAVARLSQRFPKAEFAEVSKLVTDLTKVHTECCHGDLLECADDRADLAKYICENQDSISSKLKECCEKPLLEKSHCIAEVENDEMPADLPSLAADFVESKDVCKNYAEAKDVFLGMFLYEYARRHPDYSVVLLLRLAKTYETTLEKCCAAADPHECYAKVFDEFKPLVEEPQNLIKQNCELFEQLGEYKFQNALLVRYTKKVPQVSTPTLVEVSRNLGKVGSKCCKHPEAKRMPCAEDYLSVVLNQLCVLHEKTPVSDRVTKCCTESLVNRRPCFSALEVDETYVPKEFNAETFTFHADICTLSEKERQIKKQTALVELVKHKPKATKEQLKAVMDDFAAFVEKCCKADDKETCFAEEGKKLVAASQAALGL
Experimental: as §1, §2

anti-human Fc [11] = target: T2, anti-human Fc; experiment: as above
Experimental: as §1, §2

bovine transferrin = bovine transferrin (bovine, UniProt Q29443 20-704); experiment: as above
Chain of bovine transferrin (Q29443 20-704 limits assumed): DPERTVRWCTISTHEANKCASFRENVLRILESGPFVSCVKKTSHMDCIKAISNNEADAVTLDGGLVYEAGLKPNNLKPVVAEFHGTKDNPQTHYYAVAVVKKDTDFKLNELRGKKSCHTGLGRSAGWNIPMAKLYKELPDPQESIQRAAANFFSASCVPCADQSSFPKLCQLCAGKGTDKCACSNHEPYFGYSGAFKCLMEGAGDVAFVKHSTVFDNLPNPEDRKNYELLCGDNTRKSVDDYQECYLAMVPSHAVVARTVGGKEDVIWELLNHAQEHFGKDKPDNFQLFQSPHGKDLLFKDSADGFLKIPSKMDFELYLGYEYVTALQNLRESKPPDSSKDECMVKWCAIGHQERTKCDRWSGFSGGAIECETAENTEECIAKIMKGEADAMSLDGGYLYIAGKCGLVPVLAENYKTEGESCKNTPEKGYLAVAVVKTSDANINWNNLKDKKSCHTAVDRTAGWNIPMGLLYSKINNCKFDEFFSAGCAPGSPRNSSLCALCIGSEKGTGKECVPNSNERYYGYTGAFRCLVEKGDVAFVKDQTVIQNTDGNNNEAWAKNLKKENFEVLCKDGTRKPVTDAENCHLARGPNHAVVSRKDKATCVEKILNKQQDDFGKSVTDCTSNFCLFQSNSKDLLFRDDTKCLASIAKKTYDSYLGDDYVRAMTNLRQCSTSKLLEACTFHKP
Experimental: as §1, §2

Hemoglobin (h) [12] = target: T3, Hemoglobin (h); experiment: as above
Experimental: as §1, §2

[13] = target: T6, human C5aR_NT-bio peptide (human, biotin tag (position not given)); experiment: as above
T6 construct: Chemically synthesized linear peptide (Genscript); also called human C5aR N-terminal peptide; human C5aR peptide
T6 peptide: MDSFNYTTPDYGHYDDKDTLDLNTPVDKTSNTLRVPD

Cytochrome C [14] = experiment: as above
Experimental: as §1, §2

Protein A = target: T7, Protein A; experiment: as above
T7 construct: control of the 3P panel
Experimental: as §1, §2

[15] = target: T8, Cell surface rec. 2_Fc (h); experiment: as above
T8 construct: identity not disclosed
Experimental: as §1, §2

Antitrypsin = experiment: as above
Experimental: as §1, §2

Lysozyme [16] = experiment: as above
Experimental: as §1, §2

Trypsinogen = experiment: as above
Experimental: as §1, §2

Pepsinogen [17] = experiment: as above
Experimental: as §1, §2

[18] = target: T9, full-length human FPR1 expressed on CHO Flp-In cells (human, UniProt P21462 1-350); experiment: FACS, CHO Flp-In cells expressing human FPR1, single IgG concentration
T9 construct: also called fMet-Leu-Phe receptor
T9 chain: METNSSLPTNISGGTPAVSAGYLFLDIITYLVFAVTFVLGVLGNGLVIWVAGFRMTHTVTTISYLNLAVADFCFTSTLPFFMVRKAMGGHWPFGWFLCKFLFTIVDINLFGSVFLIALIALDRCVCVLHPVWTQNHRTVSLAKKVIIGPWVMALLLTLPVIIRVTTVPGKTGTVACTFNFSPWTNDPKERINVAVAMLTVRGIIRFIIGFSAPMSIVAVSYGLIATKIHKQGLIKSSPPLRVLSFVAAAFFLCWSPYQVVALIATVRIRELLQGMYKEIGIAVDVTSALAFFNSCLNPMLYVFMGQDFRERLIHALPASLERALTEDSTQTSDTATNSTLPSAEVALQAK

[19] = target: T10, cynomolgus C5aR_NT-bio peptide (cynomolgus monkey, biotin tag (position not given)); experiment: SPR (Biacore T200), IgG captured on anti-human-Fc, peptide as analyte, 1:1 fit, monovalent; value marked * (for ranking purposes; fast kon, fast koff)
T10 construct: Chemically synthesized linear peptide (Genscript); also called cynomolgus C5aR N-terminal peptide; cynomolgus C5aR peptide
T10 peptide: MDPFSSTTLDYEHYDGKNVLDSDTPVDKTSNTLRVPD

Chain of RNase A (P61823 27-150): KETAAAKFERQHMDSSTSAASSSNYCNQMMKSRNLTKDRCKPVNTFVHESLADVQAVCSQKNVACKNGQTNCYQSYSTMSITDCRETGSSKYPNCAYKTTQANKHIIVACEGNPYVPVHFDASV

B1: MAB #2 (antibody, human IgG1, lambda)
heavy: EVQLVESGGGLVKPGGSLRLSCAASGFTFSSYAMHWVRQAPGKGLEWVGRIKSVAQGGTTDYAAHVKGRFTISRDDSKNTLYLQMNSLKTEDTAVYYCARVSHSTFDVWGQGTLVTVSSASTKGPSVFPLAPSSKSTSGGTAALGCLVKDYFPEPVTVSWNSGALTSGVHTFPAVLQSSGLYSLSSVVTVPSSSLGTQTYICNVNHKPSNTKVDKRVEPKSCDKTHTCPPCPAPEAEGAPSVFLFPPKPKDTLMISRTPEVTCVVVDVSHEDPEVKFNWYVDGVEVHNAKTKPREEQYNSTYRVVSVLTVLHQDWLNGKEYKCKVSNKALPSSIEKTISKAKGQPREPQVYTLPPSREEMTKNQVSLTCLVKGFYPSDIAVEWESNGQPENNYKTTPPVLDSDGSFFLYSKLTVDKSRWQQGNVFSCSVMHEALHNHYTQKSLSLSPGK
light: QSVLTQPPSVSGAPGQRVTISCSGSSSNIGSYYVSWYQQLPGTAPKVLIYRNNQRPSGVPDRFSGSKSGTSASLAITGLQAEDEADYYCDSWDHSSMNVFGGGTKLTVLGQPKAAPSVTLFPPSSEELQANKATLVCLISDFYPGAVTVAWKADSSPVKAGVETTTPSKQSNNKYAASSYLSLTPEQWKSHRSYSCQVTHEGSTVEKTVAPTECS
notes: lambda 1 light chain
- binding ratio (signal / signal of MOR03207) (Myoglobin): 2
- binding ratio (signal / signal of MOR03207) (RNase A [1]): 6
- binding ratio (signal / signal of MOR03207) (GFP [2]): 2
- binding ratio (signal / signal of MOR03207) (anti-human Fab (Dianova)): 1
- binding ratio (signal / signal of MOR03207) (anti-human Fc [3]): 1
- binding ratio (signal / signal of MOR03207) (Hemoglobin (h) [4]): 2
- binding ratio (signal / signal of MOR03207) (Fibrinogen (b)): 2
- binding ratio (signal / signal of MOR03207) (Cytochrome C [5]): 2
- binding ratio (signal / signal of MOR03207) [6]: 2
- binding ratio (signal / signal of MOR03207) (Amyloglycosidase): 2
- binding ratio (signal / signal of MOR03207) (Lysozyme [7]): 2
- binding ratio (signal / signal of MOR03207) (Pepsinogen [8]): 5
- binding ratio (signal / signal of MOR03207) (RNase A [9]): 2
- binding ratio (signal / signal of MOR03207) (Trypsin inhibitor): 3
- binding ratio (signal / signal of MOR03207) (GFP [10]): 1
- binding ratio (signal / signal of MOR03207) (Serum albumin (h)): 1
- binding ratio (signal / signal of MOR03207) (anti-human Fc [11]): 1
- binding ratio (signal / signal of MOR03207) (bovine transferrin): 4
- binding ratio (signal / signal of MOR03207) (Hemoglobin (h) [12]): 1
- binding ratio (signal / signal of MOR03207) [13]: 46
- binding ratio (signal / signal of MOR03207) (Cytochrome C [14]): 1
- binding ratio (signal / signal of MOR03207) (Protein A): 1
- binding ratio (signal / signal of MOR03207) [15]: 1
- binding ratio (signal / signal of MOR03207) (Antitrypsin): 2
- binding ratio (signal / signal of MOR03207) (Lysozyme [16]): 1
- binding ratio (signal / signal of MOR03207) (Trypsinogen): 1
- binding ratio (signal / signal of MOR03207) (Pepsinogen [17]): 1
- binding result [18]: no binding (tested: 300 nM)
- Kd [19]: 34 µM
- koff [19]: 0.145 s⁻¹
- kon [19]: 4290 M⁻¹ s⁻¹

B2: MAB #1 (antibody, human IgG1, lambda)
heavy: B1 heavy with V54K, H103F
light: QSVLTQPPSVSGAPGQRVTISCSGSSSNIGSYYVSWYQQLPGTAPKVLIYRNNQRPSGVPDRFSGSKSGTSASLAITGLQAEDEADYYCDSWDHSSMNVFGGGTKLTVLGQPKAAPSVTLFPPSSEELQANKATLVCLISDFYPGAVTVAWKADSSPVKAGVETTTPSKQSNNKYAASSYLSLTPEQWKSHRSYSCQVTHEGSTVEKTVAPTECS
notes: lambda 1 light chain, VH3-15 framework
- binding ratio (signal / signal of MOR03207) (Myoglobin): 2
- binding ratio (signal / signal of MOR03207) (RNase A [1]): 4
- binding ratio (signal / signal of MOR03207) (GFP [2]): 2
- binding ratio (signal / signal of MOR03207) (anti-human Fab (Dianova)): 1
- binding ratio (signal / signal of MOR03207) (anti-human Fc [3]): 1
- binding ratio (signal / signal of MOR03207) (Hemoglobin (h) [4]): 2
- binding ratio (signal / signal of MOR03207) (Fibrinogen (b)): 2
- binding ratio (signal / signal of MOR03207) (Cytochrome C [5]): 2
- binding ratio (signal / signal of MOR03207) [6]: 2
- binding ratio (signal / signal of MOR03207) (Amyloglycosidase): 3
- binding ratio (signal / signal of MOR03207) (Lysozyme [7]): 2
- binding ratio (signal / signal of MOR03207) (Pepsinogen [8]): 4
- binding ratio (signal / signal of MOR03207) (RNase A [9]): 2
- binding ratio (signal / signal of MOR03207) (Trypsin inhibitor): 2
- binding ratio (signal / signal of MOR03207) (GFP [10]): 1
- binding ratio (signal / signal of MOR03207) (Serum albumin (h)): 2
- binding ratio (signal / signal of MOR03207) (anti-human Fc [11]): 1
- binding ratio (signal / signal of MOR03207) (bovine transferrin): 8
- binding ratio (signal / signal of MOR03207) (Hemoglobin (h) [12]): 1
- binding ratio (signal / signal of MOR03207) [13]: 82
- binding ratio (signal / signal of MOR03207) (Cytochrome C [14]): 1
- binding ratio (signal / signal of MOR03207) (Protein A): 1
- binding ratio (signal / signal of MOR03207) [15]: 1
- binding ratio (signal / signal of MOR03207) (Antitrypsin): 1
- binding ratio (signal / signal of MOR03207) (Lysozyme [16]): 1
- binding ratio (signal / signal of MOR03207) (Trypsinogen): 1
- binding ratio (signal / signal of MOR03207) (Pepsinogen [17]): 1
- binding result [18]: no binding (tested: 300 nM)
- Kd [19]: 8.2 µM
- koff [19]: 0.111 s⁻¹
- kon [19]: 13600 M⁻¹ s⁻¹
